In article PMC5031806:
pKd: −log10 of the molar value.

Molecular target: meMICU1^97-476 (human MICU1 residues 97-476, methylated in vitro by recombinant PRMT1) (human) (UniProt Q9BPX6)
Assay: ITC; IML2^UCP2 (500 μM, syringe) titrated into MICU1 (40 μM, cell); VP-ITC, 25 °C; 20 mM Tris pH 7.0, 500 mM NaCl, 50 mM Arg, 2 mM BME; single site-binding model

UniProt Q9BPX6, sequence (Q9BPX6 97-476): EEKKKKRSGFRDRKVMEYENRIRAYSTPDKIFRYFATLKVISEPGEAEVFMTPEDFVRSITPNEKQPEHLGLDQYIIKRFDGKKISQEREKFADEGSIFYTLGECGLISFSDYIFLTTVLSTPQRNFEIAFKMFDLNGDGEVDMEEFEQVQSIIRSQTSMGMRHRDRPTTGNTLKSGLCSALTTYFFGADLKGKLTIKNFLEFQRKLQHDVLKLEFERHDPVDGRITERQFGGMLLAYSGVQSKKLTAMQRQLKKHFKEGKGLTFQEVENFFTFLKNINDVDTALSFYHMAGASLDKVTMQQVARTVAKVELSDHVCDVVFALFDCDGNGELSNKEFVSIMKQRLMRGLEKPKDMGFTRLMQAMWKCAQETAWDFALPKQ

pKd: 4.61
Substance: IML2^UCP2 (chemically synthetized intermembrane loop 2 of UCP2) (from UniProt P55851 147-171) (peptide)
